For one substance, stoichiometry N results are on record in publication PMC9181416.

The target of this assay is PIN1 HL-1, fragment of the PIN1 hydrophilic loop, amino acids 289-451 (Arabidopsis thaliana) (UniProt Q9C6B8). The assay can be described thus: AUC; sedimentation velocity, 42,000 rpm, 20 °C, 50 mM NaP pH 7.4, 150 mM NaCl, absorbance at 280 nm, c(s) distribution (SEDFIT); PIN1 HL-1 at 1.26 mg/mL; monomer to dimer.

“PIN1 HL-1, fragment of the PIN1 hydrophilic loop, amino acids 289-451 (from UniProt Q9C6B8 289-451) (domain or fragment)” showed a stoichiometry N of 2.
